For test [1], the system named is norepinepherin contracted aortic rings. Nature of the test: Vasodilatation of norepinepherin contracted aortic rings. Set-up: species or system Sprague Dawley rats. To be noted: 323, 162, and 81 ng/ml. Here is the method: The effect of zsig37 on vasodilatation of aortic rings was measured according to the procedures of (Dainty et al., J. Pharmacol. 100:767 (1990), and Rhee et al., Neurotox. 16:179 (1995)). Briefly, aortic rings 4 mm in length were taken from 4 month old Sprague Dawley rats and placed in modified Krebs solution (118.5 mM NaCl, 4.6 mM KCl, 1.2 mM MgSO4.7H2O, 1.2 mM KH2PO4, 2.5 mM CaCl2.2H2O, 24.8 mM NaHCO3 and 10 mM glucose). The rings were then attached to an isometric force transducer (Radnoti Inc.; Monrovia, Calif.) and the data recorded with a Ponemah physiology platform (Gould Instrument systems, Inc.; Valley View, Ohio) and placed in a 10 ml tissue bath oxygenated (95% O2, 5% CO2) modified Krebs solution. The tissues were adjusted to one gram resting tension and allowed to stabilize for one hour before testing.
The rings were tested by 5 μl additions of […] norepinepherin (Sigma Chemical Co.; St. Louis, Mo.) to a final concentration of about 1×10^−9 M and Carbachol, a muscarinic acetylcholine agonist (Sigma Chemical Co.) at 2×10^−7 M final, to test the integrity of the rings. After each test, the rings were washed three times with fresh buffer, five minutes between washes and allowed to rest one hour. […] Zsig37 was then added to one, two, or three of the four baths, without flushing, and tension on the rings was recorded and compared to the control rings. […]

Test [2] deals with alternate pathway of human Complement serum. Put plainly: Complement hemolysis assay, alternate pathway (rabbit erythrocytes and EGTA). Type of test: biochemical. Here is the method:
Complement assays were performed in 96 well round bottom plates. Gelatin Veronal buffer containing magnesium and calcium (141 mM NaCl, 1.8 mM sodium barbitol, 3.1 mM barbituric acid, 0.1% bovine gelatin, 0.5 mM MgCl2 and 0.15 mM CaCl2) was used for all serum and inhibitor dilutions as well as erythrocyte suspensions. Fifty microliters of standardized human Complement serum (Sigma Chemical Co.), diluted 1/37.5 (for a final dilution of 1/150) was added to each well. The inhibitor was added in triplicate, 50 μl/well. The serum and inhibitor were incubated for thirty minutes at room temperature. The assay was initiated by the addition of 100 μl of 2×10^8/ml unsensitized sheep erythrocytes (Colorado Serum Co.; Denver, Colo.), sensitized sheep erythrocytes, sensitized using the Hemolysin manufacturer's protocol (BioWhittaker Inc.; Walkersville, Md.) and rabbit erythrocytes containing 16 mM EGTA, and 4 mM Mg^++. A human serum dilution series from 1/50 to 1/400 was also plated as an activity control. Erythrocytes, lysed with distilled water and diluted to 100, 75, 50, 25, and 12.5 percent lysis, were used to quantify complement percent lysis. The plate was sealed and incubated at 37° C. for one hour with mixing every 15 minutes. […] The plate was read at 415 nm and percent lysis was calculated.

Test [3] has as its system carotid artery crush injury, vascular occlusion. Nature of the test: Modified rabbit carotid artery crush injury model. Type of test: in vivo, New Zealand White rabbits. To be noted: 2-13.5 μg/kg. How it is done: Zsig37 was administered in a modified rabbit carotid artery injury model (Folts et al., Circulation 79:116 (1989), and Golino et al., Thrombosis and Haemostasis 67:302 (1992)) to determine the degree of protection offered in preventing vascular occlusion following a crush injury.
Thirty-four male New Zealand White rabbits, approximately three to six months old (R&R Rabbitry; Stanwood, Wash.) were divided into two groups. Fifteen rabbits received doses of zsig37 ranging from 2-13.5 μg/kg and 19 control rabbits were injected with PBS or equivalent amounts of PBS or zsig39, another adipocyte complement related protein (WO99/10492). The rabbits were anesthetized with ketamine (50 mg/kg, IM) and maintained on halothane inhalation anesthesia for the duration of the study. The hair was shaved from the ears and neck and an angiocatheter was placed in the marginal ear vein for IV support. A midline incision was made in the neck and the carotid artery was accessed. Approximately 5 cm of the common carotid artery proximal to the internal/external bifurcation was exposed via blunt dissection away from the surrounding tissue and any visible side branches were cauterized. A flow probe (Transonic Systems, Inc.; Ithaca N.Y.) was placed distal to the anticipated injury site and a baseline blood flow was established. A 2.5-3.0 cm section of the vessel was then isolated from circulation using atraumatic vascular clamps. Following removal of the blood from the vessel segment, 0.4 ml of zsig37 in 0.9% sodium chloride or […] 0.9% sodium chloride as a control, was injected into the empty vessel segment using a 30 G needle. The vessel was left undisturbed for a five-minute pre-injury treatment. A 1.0 cm crush injury was then inflicted into the center of the vessel segment using a guarded hemostat and left undisturbed for 10 minutes. The vessel clamps were then removed and blood flow reestablished. Blood flow was monitored continuously for 60 minutes after which time the rabbits were euthanized and the vessel excised for histological analysis.

B1: zsig37: adipocyte complement related protein homolog, polypeptide of SEQ ID NO:2, inhibits collagen-mediated platelet activation and the complement pathway (protein, listed as Homo sapiens)
chain: MGSRGQGLLLAYCLLLAFASGLVLSRVPHVQGEQQEWEGTEELPSPPDHAERAEEQHEKYRPSQDQGLPASRCLRCCDPGTSMYPATAVPQINITILKGEKGDRGDRGLQGKYGKTGSAGARGHTGPKGQKGSMGAPGERCKSHYAAFSVGRKKPMHSNHYYQTVIFDTEFVNLYDHFNMFTGKFYCYVPGLYFFSLNVHTWNQKETYLHIMKNEEEVVILFAQVGDRSIMQSQSLMLELREQDQVWVRLYKGERENAIFSEELDTYITFSGYLVKHATEP
Turning to B1, in test [1], the “dose response of vasodilatation” value was “dose response could not be determined”. Further, in test [1] (two of seven controls dilated, Fisher exact P 0.045), the rings vasodilated is 10 of the 12. In test [2], the “inhibition of alternate pathway lysis” value was “no apparent inhibition”. Further, the “dose dependency of time patent” value in test [3] is reported as “No dose dependency was seen”. Besides, in test [3] (combined zsig37 treated groups, 60 minutes, standard error ±10.3%, controls 13.5%), the “mean percent time patent” value was found to be 37.2%. For the same molecule, in test [3] (unpaired t-test P=0.019), the “time patent compared to controls (meta analysis of all doses)” value is listed as “significant increase in time patent”.
